From paper PMC3124363 (Nature chemical biology, 2011)

Molecular target: GST-Cdk1/GST-cyclin B1 complex (UniProt P06493 1-297; P14635 1-433)
Experiment: cell-based or functional assay

Sequence of GST-Cdk1/GST-cyclin B1 complex (P06493 whole entry, chain 1 of 2): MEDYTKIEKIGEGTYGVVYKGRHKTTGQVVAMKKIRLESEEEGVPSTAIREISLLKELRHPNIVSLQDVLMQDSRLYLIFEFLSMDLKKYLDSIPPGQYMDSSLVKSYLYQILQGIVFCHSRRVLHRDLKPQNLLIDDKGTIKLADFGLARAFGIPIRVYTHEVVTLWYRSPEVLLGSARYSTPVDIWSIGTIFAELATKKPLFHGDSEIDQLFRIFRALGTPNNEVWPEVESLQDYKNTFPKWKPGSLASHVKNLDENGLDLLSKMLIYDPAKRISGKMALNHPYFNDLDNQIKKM
Sequence of GST-Cdk1/GST-cyclin B1 complex (P14635 whole entry, chain 2 of 2): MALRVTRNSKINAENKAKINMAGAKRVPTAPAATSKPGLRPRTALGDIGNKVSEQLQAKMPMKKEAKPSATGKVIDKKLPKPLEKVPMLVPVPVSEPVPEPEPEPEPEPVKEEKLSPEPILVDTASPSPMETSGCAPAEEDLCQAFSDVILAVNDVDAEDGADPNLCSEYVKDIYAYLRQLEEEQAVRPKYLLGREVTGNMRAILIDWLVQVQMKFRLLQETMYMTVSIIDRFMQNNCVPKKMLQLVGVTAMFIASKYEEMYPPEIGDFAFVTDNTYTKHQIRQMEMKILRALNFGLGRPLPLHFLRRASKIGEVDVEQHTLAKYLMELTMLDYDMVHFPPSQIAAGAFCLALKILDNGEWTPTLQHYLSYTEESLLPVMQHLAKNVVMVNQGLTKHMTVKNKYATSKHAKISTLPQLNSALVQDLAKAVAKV

B1: p21-KID-LH+3 (p21-KID with sub-domain LH lengthened by three residues) (domain or fragment, human, UniProt P38936 9-84, looked up)
chain: RQNPCGSKACRRLFGPVDSEQLSRDCDALMAGCIQEARERALRWNFDFVTETPLEGDFAWERVRGLGLPKLYLPTGPRR
IC50 of inhibition of Cdk1/cyclin B1 kinase activity in vitro (substrate Rb^C): 71 nM

B2: p21-KID-LH−3 (p21-KID with sub-domain LH shortened by three residues) (domain or fragment, human, UniProt P38936 9-84, looked up)
chain: RQNPCGSKACRRLFGPVDSEQLSRDCDALMAGCIQEAWNFDFVTETPLEGDFAWERVRGLGLPKLYLPTGPRR
IC50 of inhibition of Cdk1/cyclin B1 kinase activity in vitro (substrate Rb^C): 218 nM
